Results from US20020028208A1 (TEXAS A AND M UNIVERSITY SYSTEM, published 2002).

T1: huCD80-Ig fusion protein (human, UniProt P33681 35-241)
T1 construct: Provided by P. Linsley, Bristol-Meyers Squibb; also called soluble CD80 receptor; soluble receptor for CD28; not shown: Ig part of the fusion
T1 sequence (looked up): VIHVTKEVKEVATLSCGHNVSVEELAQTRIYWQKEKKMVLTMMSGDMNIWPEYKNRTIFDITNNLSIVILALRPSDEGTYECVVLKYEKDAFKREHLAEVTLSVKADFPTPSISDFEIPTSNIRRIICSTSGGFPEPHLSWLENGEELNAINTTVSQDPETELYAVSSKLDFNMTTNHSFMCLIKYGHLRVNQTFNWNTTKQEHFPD

B1: feline CD80 (B7-1)-TAMU, surface expressed on feCD80/pSI transfected COS-7 cells (ligand)
chain: ASLFYFCSGIIQVNKTVEEVAVLSCDYNISTKELTEIRIYWQKDDEMVLAVMSGKVQVWPKYKNRTFTDVTDNHSIVIMALRLSDNGKYTCIIQKIEKGSYKVKHLTSVMLLVRADFPVPSITDLGNPSHNIKRIMCLTSGGFPKPHLSWLENEEELNAINTTVSQDPETELYTISSELDFNMTNNHSFLCLVKYGNLLVSQIFNWQKSEPQPSNNQLWIIILSSVVSGIVVITALTLRCLVHRPAARWRQREMGRARKWKRSHLST
notes: also called CD80-pSI transfected COS cells
B2: feline CD28, surface expressed on CD28-pSI transfected COS-7 cells (receptor)
chain: NKILVKQLPRLVVYNNEVNLSCKYTHNFFSKEFRASLYKGVDSAVEVCVVNGNYSHQPQFYSSTGFDCDGKLGNETVTFYLRNLFVNQTDIYFCKIEVMYPPPYIDNEKSNGTIIHVKEKHLCPAQLSPESSKPFWALVVVGGILGFYSLLATVALGACWMKTKRSRILQSDYMNMTPRRPGPTRRHYQPYAPARDFAAYRS
notes: also called feCD28; CD28 pSI transfected cells

Legend:
[1] = target: B2; experiment: cell-cell adhesion assay at 1x10^6 labeled CD80-pSI COS-7 cells on a CD28-pSI COS-7 monolayer; still significantly higher at 5x10^5 cells, not distinguishable at 1x10^5 and 1x10^4
Procedure: (§1) Binding assays for transfected cells expressing feline CD80 and feline CD28 were performed after the protocol described in Linsley et al., 1994a. One day after transfection, CD28 expressing COS-7 cells were removed from T-75 flasks with trypsin-EDTA treatment. The cells were allowed to adhere in 24 well plates at a concentration of 1×10⁵ cells per ml. Two days later, the feCD80/pSI transfected COS-7 cells were removed from T-75 flasks with PBS/0.5 […] EDTA. These cells were then fluorescently labeled with a 5 μM solution of Calcein AM (Molecular Probes, Eugene, Oreg.) in sterile PBS/1% BSA for 30 min at 37° C. (Akeson and Woods, 1993). Mock transfected COS-7 cells were labeled in the same fashion. The labeled cells were then washed three times with DMEM plus 10% FCS to remove unincorporated label, counted, and added directly to the monolayer. The two cell populations were allowed to interact for 1 hr at 37° C. Nonadherent cells were removed by gently washing the monolayer 3 times with DMEM +10% FCS. Following the washing, the fluorescence of each of the wells was quantitated on a microplate fluorimeter. Fluorescence in wells containing transfected populations was compared to wells in which CD80 expressing cells were added to COS-7 cells transfected with pSI plasmid alone. […]

huCD80-Ig fusion protein = target: T1, huCD80-Ig fusion protein; experiment: competitive cell-cell adhesion assay: CD28-pSI COS-7 monolayer pre-incubated with CD80 Ig at 1 ug/ml for 30 min and washed before labeled CD80-pSI COS-7 cells were added
Procedure: as §1

fluorescence retained, fold over wells with mock transfected adherent cells [1] | binding result (huCD80-Ig fusion protein) | Binder
~5 fold | – | B1
– | binds | B2
